Columns and labels:
[1] = biological target: F-actin (rabbit muscle) (rabbit) (UniProt P68135); experiment: co-sedimentation
[2] = biological target: pyrenyl-labeled F-actin (rabbit muscle) (rabbit) (UniProt P68135); experiment: other fluorescence titration
[3] = biological target: NBD-labeled G-actin (rabbit muscle) (rabbit) (UniProt P68135); experiment: other fluorescence titration
[4] = biological target: G-actin (rabbit muscle) (rabbit) (UniProt P68135)

stoichiometry N [1]: 1 | Ka [2]: > 1e+06 M⁻¹ | stoichiometry N [2]: 1 | Kd [3]: 25 nM | stoichiometry N [3]: 1 | association to barbed ends in low ionic strength F buffer (1 mM MgCl2) [4]: 20 fold
Substance: Recombinant ADF1 from Arabidopsis thaliana (natural protein)
